Results: patent US7144988B2, “Method of structure-based drug design to create or improve modulators of IL-1 activity which bind to the interleukin-1 type 1 receptor” (Array Biopharma, Inc., priority 2002, dated 2006)

Target: T1, IL1R2D (modified IL-1 type 1 receptor, amino acids 18 to 222) (Homo sapiens, UniProt P14778)
T1 construct: made in house; host or cells: Hi5 insect cells, recombinant baculovirus (made in Sf9)
T1 sequence (P14778 18-222): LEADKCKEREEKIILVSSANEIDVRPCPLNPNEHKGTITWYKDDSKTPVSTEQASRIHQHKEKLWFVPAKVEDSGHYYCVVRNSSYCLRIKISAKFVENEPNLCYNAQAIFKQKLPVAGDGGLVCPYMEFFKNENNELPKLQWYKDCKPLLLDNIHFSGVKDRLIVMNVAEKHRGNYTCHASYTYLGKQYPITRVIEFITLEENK
Assay: Binding affinity of ligands to modified IL-1 type 1 receptor IL1R2D

Substance: IL-1ra: IL-1 receptor antagonist protein; competes with IL-1α and β for receptor binding
- Kd: ≥ 1000 nM
